Data from the supplement of paper PMC12042874.
± gives the uncertainty stated by the source.

assay: amyloid nucleation score (Sup35N fusion, yeast selection) (log enrichment); library NNK2; higher = more nucleation; inactive = no reads after selection
Procedure, shortened: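 Sup35N was fused to peptides of 20 random codons and expressed in psi-negative yeast, which were induced with 100 μM copper sulfate for 24 hours and then grown on medium lacking adenine and uracil for 7 days at 30°C. Plasmid inserts from input and output were sequenced on Illumina. The nucleation score is the DiMSum log enrichment of output over input reads, centred on the mode score of non-aggregating sequences. Sequences with under 100 input reads were left out, and random libraries had three technical output replicates.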

Row | Substance | amyloid nucleation score
1 | PHSLVLSGWHNLDAFFNATL | inactive
2 | GRGYAAVLNWRLFDKDRGRI | 0.035 ± 0.28
3 | MAVYTRVVTLCRGKPFS | 1.06 ± 0.35
4 | FYYSDDEFKCTVEIPVIYLI | -1.07 ± 0.5
5 | LCGLSTLLFFKMDV | 0.716 ± 0.6
6 | FFVLRHA | -0.513 ± 0.32
7 | SLVTLWLGANAR | 0.175 ± 0.26
8 | IIFVFREYAINMKGVFK | 0.082 ± 1
9 | TKSGCRGIGHSSVVSS | 1.19 ± 0.37
10 | YGRRGELN | -0.422 ± 1.1
11 | STSLVTIPCGGFGFKYSANP | 0.171 ± 0.33
12 | SDSYAILLPC | 0.087 ± 0.79
13 | RYIMHL | -0.105 ± 1.1
14 | IYYRVWMSFSFRG | -0.717 ± 0.37
15 | SPCLDGDRHVGSQMLSPLSW | 0.919 ± 0.33
16 | NDRHLRWPFCPCYQVRLCIT | inactive
17 | YSFCWLYNYPFIFYGFAFED | 5.951 ± 0.056
18 | RVVWWVVGFS | -0.297 ± 0.56
19 | SVCSKSGNFYGVVNMGL | -0.161 ± 0.79
20 | TSRKGNSSHL | -1.54 ± 0.75
21 | LKMIWIYSFCLILVLYLRQA | 0.148 ± 1
22 | CLGGTLYLRCFIVDLLWSTG | -0.219 ± 0.55
23 | TGVKRIMSGSIIFPFLAVSF | -0.751 ± 1.1
24 | VLSENITSLISKCYCFKSHL | 6.021 ± 0.038
25 | FLSVTFFRLIRCMAL | inactive

Row | Substance | amyloid nucleation score
26 | LVHFNFMCVVARMFDMFF | inactive
27 | LFRCIKDMAY | 0.202 ± 0.51
28 | RRIKPIVLPTVCFYYVSITS | inactive
29 | WYVYSQ | 3.25 ± 0.052
30 | IAFKLRSTLSQPRNTCVLWH | 0.276 ± 1
31 | GSQVCILLAKGLWMVVFRIE | -0.795 ± 0.55
32 | FPLVWA | 0.416 ± 0.22
33 | TLYRPMTIMFMRVHHEVRWF | 6.195 ± 0.04
34 | NMDSGLVMVVLVCDDYMTTT | 0.119 ± 0.61
35 | FGWGN | 0.09 ± 0.51
36 | WLTKLDRTSLEGSEYFKKML | 0.307 ± 0.34
37 | ISVHSQNTYVILELVRPSML | 8.388 ± 0.04
38 | YLRTCI | -0.084 ± 0.49
39 | RMFWLIVQLGGSFDRLYGFR | 1.21 ± 0.45
40 | WLSTKWIFFISNVKFFLYLR | -0.06 ± 1
41 | FCVISKGRHVSMRTTSGFLE | -0.834 ± 0.54
42 | FLQRSRNMNCLRGHDFNSNG | 0.053 ± 1.1
43 | NFMSYIDKRWYQWLVSDRIS | 5.413 ± 0.047
44 | TLTKKLHIGMLYPYHTLMLR | -0.596 ± 0.76
45 | ISVVNSGCCCITTHPLRTYR | 9.867 ± 0.079
46 | NGNRSHLELRCGWMSWCDRA | -0.318 ± 0.55
47 | TLYDGWLVGPVERRFVIRAL | 1.08 ± 0.21
48 | QVWFYIVVMLVTLTGLGQVG | 1.16 ± 0.61
49 | VIFYRSFTVS | 3.64 ± 0.053
50 | AFDGGIFFSLMSFMLVWMGS | -0.345 ± 0.56

Row | Substance | amyloid nucleation score
51 | WKTKISSSSCRSGNRSEPNA | 0.281 ± 0.29
52 | VGINLSSATGMFEGKIQDNA | -0.757 ± 0.37
53 | GNVGL | 1.86 ± 0.078
54 | LFHCLSELLVGSSNSRFVCE | 0.456 ± 0.42
55 | FLLRHSSCEVIGC | 0.665 ± 0.36
56 | GTVGGVGMFVLLVTRSKVFV | 1.3 ± 0.29
57 | GMAFAKA | 0.077 ± 0.63
58 | IKFTLHCYDCVVFNC | 6.937 ± 0.056
59 | ICGYEACNNIGP | -1.12 ± 0.62
60 | ISRWTSIVFKRLNGRDKEMK | 4.29 ± 0.088
61 | RTWCPLG | 0.486 ± 0.41
62 | YVSSVAIAFGLSVGLAYYPP | 5.26 ± 0.059
63 | LIKLMGLV | 0.466 ± 0.43
64 | KVKSWCTGLLGA | 0.075 ± 0.76
65 | LLLCYYVFASHKFCCGDGVL | -0.302 ± 0.76
66 | WCLGSMVTHYYLATNSSGYC | 3.64 ± 0.11
67 | MTGNIEIIRMCRCTTYGMTY | 1.09 ± 0.37
68 | FNSLGFRLTSCIDRVTLVLW | inactive
69 | LGMSGCVCSYVYLRGFGLIL | -0.658 ± 0.37
70 | LRFASSNKLVGLD | inactive
71 | VRDIVYRYSGGRRS | inactive
72 | RLYIIIRFGIVHVT | -0.078 ± 0.21
73 | KALYYY | inactive
74 | LPKGNYSLLAERRSYFGAPI | inactive
75 | VTALYGSSICMSRSDY | 0.119 ± 0.47

Row | Substance | amyloid nucleation score
76 | EFQIMFVFHWT | inactive
77 | YLWDRSATRS | 0.605 ± 0.29
78 | SEWSQKRGLVYTVQEFQKLY | inactive
79 | RCGCHDCVFLR | -0.202 ± 0.46
80 | REVDIISHTMGGHRFNRERN | inactive
81 | NDGMSSIRWGMTPHYVSSGD | 0.698 ± 0.14
82 | VCREMSYLQ | -0.809 ± 0.54
83 | SWAQRCDGGMYMRDCWLMGS | 0.361 ± 0.33
84 | MTFDNDVCVSI | inactive
85 | TSSTTGSYLWEDEDYSYNFF | 1.68 ± 0.12
86 | LSREFLNASL | -0.947 ± 0.49
87 | FFCRG | 3.26 ± 0.084
88 | TFDFDNVAVYYALSGTGDSW | -0.516 ± 0.34
89 | RCRISVWVVGSCLSRMYG | 4.29 ± 0.056
90 | NFYFLIRLKAFSCLRIENWF | 2.28 ± 0.061
91 | DCFSYSHLRGACNVECLFYP | -0.645 ± 1.1
92 | VLFAWSASDVIVV | 0.639 ± 0.33
93 | LRSYLNSHLLLEY | -1.44 ± 0.62
94 | SYECPMHTLPVHSRSAYRST | 0.878 ± 0.27
95 | LYERFIVENDCFQNHMKHEA | inactive
96 | SKTYRPCARLSFEHGRCNLV | 3.68 ± 0.11
97 | AYLPHAHTT | -0.154 ± 0.33
98 | TVGLIRLRLSILYFGPLDSV | 0.115 ± 0.56
99 | VFLFDLGYQGR | 6.67 ± 0.073
100 | MCQDGCHGFLVTADQPQSGA | -0.148 ± 0.42

Row | Substance | amyloid nucleation score
101 | WVTSDRYKRALARKSHEQRN | 0.423 ± 0.24
102 | LDTARVNGDSYWSL | 3.57 ± 0.11
103 | IQYGEIGHIFCKVVISLNLE | 1.47 ± 0.2
104 | FRFTQDMDFRAQFDELSWRL | 2 ± 0.28
105 | VAGIVYLGARW | 5.43 ± 0.086
106 | ILSLRNR | -0.965 ± 1
107 | RDNCVWYTGHSLKRMRIAKA | inactive
108 | AVASVETDGSKIYMMDVLNY | -1.16 ± 1.1
109 | SNSCTPAGLETGNLK | inactive
110 | EFKHSLIVASARRRNDFGYR | 0.224 ± 0.43
111 | VRGYRVGVWLRTGRVLVYRG | -0.282 ± 0.76
112 | VIRVLSMLFFSRVLVPVNSK | 0.151 ± 0.62
113 | YLLFEWHYRHTYRCLVRVGA | -0.166 ± 0.76
114 | SYTMVTLPSPSL | -0.224 ± 0.23
115 | NVFLRPSFRGVHK | 2.05 ± 0.092
116 | SCWMMFHPNPMQLKFSYCVE | -0.69 ± 0.33
117 | CYNLCCLPFCGVNLMFWLQV | 7.992 ± 0.033
118 | DKRGF | inactive
119 | KSIVNL | 0.465 ± 0.41
120 | KVARGVCYCRFSL | inactive
121 | CCLYYHMIKAWDTTGVRLVN | -1.4 ± 0.78
122 | NNRWFRRGLGLSLDWTDCLS | -0.492 ± 1.1
123 | SCFGRKLLLLDGA | 0.203 ± 0.28
124 | WHDRDTITGSITIKKMH | -0.702 ± 0.32
125 | QLSFPSVTDLNRLAIIMLRV | 1.13 ± 0.4

Row | Substance | amyloid nucleation score
126 | CTSLRYFCARFELLSAHSKW | 0.199 ± 0.4
127 | EEWYHADVSCVHRKIPNATR | 0.644 ± 0.81
128 | WMLRGRYFGTE | -1.47 ± 0.44
129 | YNSVVADKWCSFSK | 0.155 ± 1.1
130 | RFLKNRMLNCKVIGIWWKCY | inactive
131 | IPPSLCARKLRCYYVGAEG | 0.249 ± 0.64
132 | WMIGRCD | 0.319 ± 0.61
133 | KFGNSCR | -0.428 ± 0.42
134 | IDYQKMLVSDCGD | 0.363 ± 0.46
135 | RVYMCCSSYCGNITKVQ | 8.027 ± 0.022
136 | VKLIGKITELGKNRMLMLWT | 0.429 ± 0.28
137 | MWKQWSSRTPRSVVYRGLMV | 0.755 ± 0.21
138 | TFSTYSFLFVKTVI | -0.417 ± 0.2
139 | RFRFYYCLDCSHL | inactive
140 | KVLVRHLRCAISPSF | 0.256 ± 1
141 | YTRSYGPFPSHLVNLARNLS | -0.905 ± 0.32
142 | VKWACNMLSI | -0.676 ± 0.48
143 | LAHGG | 3.16 ± 0.095
144 | NCFVLVRALTYCLGNSR | 5.18 ± 0.1
145 | NFNCYFS | 4.888 ± 0.037
146 | QCAVDSPYDIRKLRR | -0.086 ± 0.39
147 | QSSTYLSPRLHTISDIPYNF | -0.781 ± 0.38
148 | RAIFR | -0.686 ± 0.56
149 | MFNLSLNEFKPGLNRDCVQ | -0.258 ± 0.56
150 | KVGNGRDCIMLTVSCA | 0.748 ± 0.23

Row | Substance | amyloid nucleation score
151 | YFIGGGLRVMSRWWMCALMD | 3.24 ± 0.086
152 | QYIPMSLNCQLQYGSHAGQE | -0.216 ± 0.49
153 | VNSDYMGIGL | -0.272 ± 1.1
154 | NLGSHTVEFSVMS | 0.152 ± 0.77
155 | LNRTRYIAISKVLNRFSVSR | -0.237 ± 0.64
156 | RRYAKNMFRDLGWPVPTRSD | 3.09 ± 0.11
157 | RCYPS | 0.277 ± 0.17
158 | TESVPSWNGMKNMYEDNQLK | 1.54 ± 0.55
159 | IGTADDKVSNRQGEPTEMA | 0.681 ± 0.55
160 | QLRGLVL | 0.704 ± 0.44
161 | FTMGVRRLCYSWLRARFVKC | -0.368 ± 1
162 | YWTGGLHNEHLSMHVSVYSN | -0.527 ± 1.1
163 | CHQCVNERFESKREPVPDHS | 0.421 ± 0.45
164 | ELWVSQTTNEFSFVVGHVVC | 0.025 ± 0.5
165 | SVGQMQLT | 0.707 ± 0.35
166 | ALVLRATVVVGIVKPGHAAD | 0.523 ± 0.32
167 | FGNRLNFDILTTFVIKRWCM | -0.342 ± 0.76
168 | IRRTDREQ | 0.053 ± 0.24
169 | RNRRVWM | -0.003 ± 0.41
170 | GNTHHRDGILESQPFFVTEA | 0.465 ± 0.29
171 | VWSRRYTLVGFTSVVPSNDN | 0.3 ± 0.37
172 | IRYVMHWFISAVILTTPPCG | 0.355 ± 0.8
173 | ISLSIWQPRNSDGWKQEPAP | 2.41 ± 0.24
174 | SMTRLLGRDGYTREYSSSSR | 0.834 ± 0.55
